Substitutions are numbered along the chain they refer to. Names and notes keep the numbering of the source.

The chains are these.
B1: untagged SPD-5 amino acids 135-473, phosphorylated by PLK1, P91349 S170A; T178A; T198A (protein)
chain: MQSRIETSEDNFARQMKEFEAQKHAMEERIKELELAATDANNTAVGSFRGTLDDILKKNDPDFALTSGYEERKINDLEAKLLSEIDKVAELEDHIQQLRQELDDQSARLADSENVRAQLEAATGQGILGAAGNAMVPNSTFMIGNGRESQTRDQLNYIDDLETKLADAKKENDKARQALVEYMNKCSKLEHEIRTMVKNSTFDSSSMLLGGQTSDELKIQIGKVNGELNVLRAENRELRIRCDQLTGGDGNLSISLGQSRLMAGIATNDVDSIGQGNETGGTSMRILPRESQLDDLEESKLPLMDTSSAVRNQQQFASMWEDFESVKDSLQNNHNDTLE
B2: untagged SPD-5 amino acids 135-473, phosphorylated by PLK1, P91349 T274A; T335A; S339A; S340A (protein)
chain: B1 chain with A36S, A44T, A64T, T140A, T201A, S205A, S206A
B3: untagged SPD-5 amino acids 135-473, phosphorylated by PLK1, P91349 S170A; T178A; T198A; T274A; T335A; S339A; S340A (protein)
chain: B1 chain with T140A, T201A, S205A, S206A
B4: untagged SPD-5 amino acids 135-473, not phosphorylated, P91349 T274A; T335A; S339A; S340A (protein)
chain: B1 chain with A36S, A44T, A64T, T140A, T201A, S205A, S206A
B5: untagged SPD-5 amino acids 135-473, not phosphorylated, P91349 S170A; T178A; T198A (protein)
chain: B1 chain
B6: untagged SPD-5 amino acids 135-473, not phosphorylated, P91349 S170A; T178A; T198A; T274A; T335A; S339A; S340A (protein)
chain: B1 chain with T140A, T201A, S205A, S206A

The target in one assay is reconstituted C. elegans γ-tubulin complex (γTuC): γ-tubulin^TBG-1, GCP2^GIP-2-5Myc, GCP3^GIP-1 and MZT-1, P34475;G5EF84. Briefly: γTuC pull-down (γTuC-coated Myc beads), anti-SPD-5 immunoblot band intensity. Particulars: chain shown with the change; +PLK1 preincubation (500 nM PLK1(T194D), 2.0 μM fragment, 1 hour at 23°C); binding 2 hours at 4°C, SPD-5 fragment 75 nM; scale: band intensity relative to SPD-5 135-473 without PLK1.
Target sequence (chain, as listed by the source, chain 1 of 4): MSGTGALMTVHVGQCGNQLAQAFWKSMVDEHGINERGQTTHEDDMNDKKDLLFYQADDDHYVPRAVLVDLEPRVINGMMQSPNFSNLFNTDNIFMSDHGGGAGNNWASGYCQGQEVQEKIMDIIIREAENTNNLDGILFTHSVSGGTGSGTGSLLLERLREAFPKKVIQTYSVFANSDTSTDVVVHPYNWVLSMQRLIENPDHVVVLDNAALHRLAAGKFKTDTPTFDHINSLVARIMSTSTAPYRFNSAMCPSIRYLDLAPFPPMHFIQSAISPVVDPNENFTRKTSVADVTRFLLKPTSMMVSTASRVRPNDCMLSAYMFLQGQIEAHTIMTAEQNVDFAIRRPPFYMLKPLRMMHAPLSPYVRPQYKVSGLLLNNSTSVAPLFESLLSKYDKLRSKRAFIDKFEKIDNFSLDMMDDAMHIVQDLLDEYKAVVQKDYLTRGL
Target sequence (chain, as listed by the source, chain 2 of 4): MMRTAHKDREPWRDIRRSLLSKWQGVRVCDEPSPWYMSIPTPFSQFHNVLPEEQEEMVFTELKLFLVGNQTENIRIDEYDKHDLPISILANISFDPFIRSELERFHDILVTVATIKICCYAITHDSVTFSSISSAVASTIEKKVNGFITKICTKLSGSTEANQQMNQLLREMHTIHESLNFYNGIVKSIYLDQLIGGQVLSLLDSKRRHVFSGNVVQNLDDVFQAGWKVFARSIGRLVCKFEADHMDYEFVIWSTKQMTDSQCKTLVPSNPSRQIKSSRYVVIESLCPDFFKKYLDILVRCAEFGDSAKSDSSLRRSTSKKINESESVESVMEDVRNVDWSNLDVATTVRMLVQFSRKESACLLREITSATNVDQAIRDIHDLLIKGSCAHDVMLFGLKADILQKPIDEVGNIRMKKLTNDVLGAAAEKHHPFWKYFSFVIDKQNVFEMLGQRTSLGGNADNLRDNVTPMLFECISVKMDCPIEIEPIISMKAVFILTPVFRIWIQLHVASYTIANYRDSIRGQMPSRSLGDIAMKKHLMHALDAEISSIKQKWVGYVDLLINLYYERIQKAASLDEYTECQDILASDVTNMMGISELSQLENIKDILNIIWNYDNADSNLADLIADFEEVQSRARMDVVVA
Target sequence (chain, as listed by the source, chain 3 of 4): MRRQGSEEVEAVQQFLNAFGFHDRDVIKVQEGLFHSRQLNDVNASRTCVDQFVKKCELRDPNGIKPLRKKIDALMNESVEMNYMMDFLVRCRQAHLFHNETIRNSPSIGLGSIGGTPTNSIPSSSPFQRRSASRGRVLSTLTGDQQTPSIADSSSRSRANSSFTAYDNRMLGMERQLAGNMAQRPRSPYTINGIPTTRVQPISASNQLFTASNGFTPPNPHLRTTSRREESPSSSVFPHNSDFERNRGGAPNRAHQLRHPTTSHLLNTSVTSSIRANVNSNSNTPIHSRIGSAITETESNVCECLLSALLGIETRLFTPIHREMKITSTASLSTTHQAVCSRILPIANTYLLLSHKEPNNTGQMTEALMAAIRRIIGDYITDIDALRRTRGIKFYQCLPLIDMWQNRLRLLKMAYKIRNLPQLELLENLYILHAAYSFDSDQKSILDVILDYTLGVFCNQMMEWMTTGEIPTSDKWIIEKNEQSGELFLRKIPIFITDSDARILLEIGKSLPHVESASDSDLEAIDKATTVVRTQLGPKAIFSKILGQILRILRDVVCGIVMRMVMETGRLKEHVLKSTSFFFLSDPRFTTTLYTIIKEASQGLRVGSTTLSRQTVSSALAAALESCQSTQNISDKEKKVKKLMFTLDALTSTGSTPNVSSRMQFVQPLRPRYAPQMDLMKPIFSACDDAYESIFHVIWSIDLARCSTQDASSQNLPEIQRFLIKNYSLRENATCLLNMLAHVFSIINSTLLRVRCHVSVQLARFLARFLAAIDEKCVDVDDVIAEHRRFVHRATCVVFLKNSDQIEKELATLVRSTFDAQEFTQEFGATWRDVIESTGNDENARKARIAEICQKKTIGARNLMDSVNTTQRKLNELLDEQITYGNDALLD
Target sequence (chain, as listed by the source, chain 4 of 4): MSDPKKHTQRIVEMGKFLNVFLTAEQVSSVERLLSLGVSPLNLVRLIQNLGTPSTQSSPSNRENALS
Molecule B1 yielded a response of 0.1.
On the same count and under the same terms, the same measure for B2: 2.8.
The same measure, in the same setting: the same measure for B3: 0.

Still in this assay, the particulars now being: chain shown with the change; no PLK1; binding 2 hours at 4°C, SPD-5 fragment 75 nM; scale: band intensity relative to SPD-5 135-473 without PLK1.
B4 returned a response of 0.1.
Same read-out and setting: the same measure for B5: 0.7; for B6: 0.1.

For the origin of these results see publication PMC13215203.
